{"source": "paper PMC6191456", "about": "(Scientific Reports, 2018)", "binders": {"B1": {"name": "ParE toxin of the parDE system from the broad host range plasmid RK2 (natural protein)", "chain": "MTAYILTAEAEADLRGIIRYTRREWGAAQVRRYIAKLEQGIARLAAGEGPFKDMSELFPALRMARCEHHYVFCLPRAGEPALVVAILHERMDLMTRLADRLKG", "notes": "also called GST-ParE"}}, "conditions_in_all_cases": "both partners purified", "key": {"[1]": {"target": "B1", "experiment": "SPR; BIAcore 2000; ClpA immobilised on a CM5 chip; ParD (200 nM) injected to pre-form the ClpA-ParD complex, then ParE (200 nM) injected; ParD or buffer as controls; HBS-EP buffer with 10 mM magnesium acetate and 2 mM ATP"}, "[2]": {"target": "T1, ClpA, the ATPase unit of ClpAP protease (E. coli, UniProt P0ABH9 1-758)", "T1 construct": "ClpA, ATP-dependent unfoldase subunit of the ClpAP protease, E. coli; also called ClpA ATPase; source: purified by a published protocol [55]", "T1 sequence (looked up)": "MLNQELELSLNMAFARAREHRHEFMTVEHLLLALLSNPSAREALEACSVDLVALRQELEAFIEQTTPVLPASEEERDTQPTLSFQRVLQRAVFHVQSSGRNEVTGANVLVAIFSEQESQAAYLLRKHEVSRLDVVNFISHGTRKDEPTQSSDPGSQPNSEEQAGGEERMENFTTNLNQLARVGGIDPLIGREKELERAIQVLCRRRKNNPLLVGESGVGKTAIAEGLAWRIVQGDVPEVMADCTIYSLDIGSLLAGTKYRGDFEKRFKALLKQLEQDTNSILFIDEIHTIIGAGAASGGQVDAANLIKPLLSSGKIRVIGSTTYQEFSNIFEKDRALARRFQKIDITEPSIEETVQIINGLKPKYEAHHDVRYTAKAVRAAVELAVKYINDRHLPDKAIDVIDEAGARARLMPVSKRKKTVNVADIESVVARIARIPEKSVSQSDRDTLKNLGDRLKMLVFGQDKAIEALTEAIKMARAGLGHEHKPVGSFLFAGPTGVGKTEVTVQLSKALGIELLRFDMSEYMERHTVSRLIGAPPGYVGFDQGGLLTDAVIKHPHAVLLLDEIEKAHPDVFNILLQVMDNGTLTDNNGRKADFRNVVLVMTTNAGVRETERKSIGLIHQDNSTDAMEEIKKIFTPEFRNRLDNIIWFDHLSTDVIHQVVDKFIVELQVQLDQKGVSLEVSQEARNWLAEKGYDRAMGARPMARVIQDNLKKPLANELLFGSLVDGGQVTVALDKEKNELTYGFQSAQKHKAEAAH", "experiment": "SPR; BIAcore 2000; ParD or ParE immobilised on a CM5 chip, ClpA injected; HBS-EP buffer with 10 mM magnesium acetate and 2 mM ATP; flow 15 µl/min"}, "[3]": {"target": "T1, ClpA, the ATPase unit of ClpAP protease", "experiment": "SPR; BIAcore 2000; ClpA immobilised on a CM5 chip; mixture of ParD (200 nM) preincubated with increasing concentrations of ParE injected; HBS-EP buffer with 10 mM magnesium acetate and 2 mM ATP"}, "[4]": {"target": "T2, pre-formed ClpA-ParD complex (E. coli | plasmid RK2, UniProt P0ABH9;P22995)", "T2 construct": "also called ParD-ClpA complex; source: formed on the sensor chip: purified ParD (200 nM) injected onto immobilised purified ClpA", "T2 sequence 1": "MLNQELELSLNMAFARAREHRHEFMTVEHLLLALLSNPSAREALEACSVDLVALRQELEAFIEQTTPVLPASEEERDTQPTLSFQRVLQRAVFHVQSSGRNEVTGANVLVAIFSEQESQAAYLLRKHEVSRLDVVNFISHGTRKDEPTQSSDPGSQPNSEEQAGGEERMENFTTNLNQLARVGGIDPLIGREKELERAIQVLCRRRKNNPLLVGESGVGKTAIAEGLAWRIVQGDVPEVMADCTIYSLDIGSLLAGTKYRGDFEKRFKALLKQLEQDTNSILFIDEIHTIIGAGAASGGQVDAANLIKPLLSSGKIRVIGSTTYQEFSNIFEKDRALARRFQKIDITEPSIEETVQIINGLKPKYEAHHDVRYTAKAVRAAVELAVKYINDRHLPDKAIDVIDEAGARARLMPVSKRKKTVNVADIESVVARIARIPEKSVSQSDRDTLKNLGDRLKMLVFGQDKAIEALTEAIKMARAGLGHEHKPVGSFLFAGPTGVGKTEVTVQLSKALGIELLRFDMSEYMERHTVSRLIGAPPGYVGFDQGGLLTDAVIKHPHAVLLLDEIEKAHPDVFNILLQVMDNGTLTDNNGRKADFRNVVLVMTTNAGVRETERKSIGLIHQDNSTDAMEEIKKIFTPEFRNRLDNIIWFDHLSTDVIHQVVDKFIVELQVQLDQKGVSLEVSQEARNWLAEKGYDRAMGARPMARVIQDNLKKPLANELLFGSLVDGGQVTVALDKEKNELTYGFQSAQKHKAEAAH", "T2 sequence 2": "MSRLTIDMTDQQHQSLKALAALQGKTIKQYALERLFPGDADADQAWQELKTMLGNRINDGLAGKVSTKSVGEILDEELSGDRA", "experiment": "SPR; BIAcore 2000; ClpA immobilised on a CM5 chip; ParD (200 nM) injected to pre-form the ClpA-ParD complex, then ParE (200 nM) injected; ParD or buffer as controls; HBS-EP buffer with 10 mM magnesium acetate and 2 mM ATP"}}}
{"binder": "ParD antitoxin of the parDE system from the broad host range plasmid RK2 (natural protein, UniProt P22995 1-83, looked up, the construct is not described for the SPR; source: purified by a published protocol [30]) MSRLTIDMTDQQHQSLKALAALQGKTIKQYALERLFPGDADADQAWQELKTMLGNRINDGLAGKVSTKSVGEILDEELSGDRA", "values": [{"measurement": "binding result", "setting": "[1]", "result": "binds"}, {"measurement": "binding result", "setting": "[2]", "result": "binds"}]}
{"binder": "ParD-ParE complex (preincubated ParD and ParE proteins) (complex, the ParD2-ParE2 make-up is cited from earlier work and not measured here; also called ParD-ParE heterotetamer; ParDE complex; source: purified ParD (200 nM) preincubated with increasing concentrations of purified ParE; copies: 2 + 2) chain 1: MSRLTIDMTDQQHQSLKALAALQGKTIKQYALERLFPGDADADQAWQELKTMLGNRINDGLAGKVSTKSVGEILDEELSGDRA chain 2: MTAYILTAEAEADLRGIIRYTRREWGAAQVRRYIAKLEQGIARLAAGEGPFKDMSELFPALRMARCEHHYVFCLPRAGEPALVVAILHERMDLMTRLADRLKG", "values": [{"measurement": "binding result", "setting": "[3]", "result": "binds"}]}
{"binder": "B1", "values": [{"measurement": "binding result", "setting": "[4]", "result": "binds"}]}
